T1: Flag-tagged FANCJ wild type (human, UniProt Q9BX63 1-1249)
T1 construct: FANCJ (BRIP1, BACH1) DNA helicase, human, open reading frame; purified as full-length protein; Plasmid from Hisao Masai (Uno et al, 2012); also called FANCJ WT; Flag-FANCJ WT; source: HEK 293T, transiently transfected (pCSII-EF-MCS): in whole-cell extract or nuclear fraction; also purified (anti-Flag M2 agarose, 3x Flag-peptide elution)
T1 sequence (looked up): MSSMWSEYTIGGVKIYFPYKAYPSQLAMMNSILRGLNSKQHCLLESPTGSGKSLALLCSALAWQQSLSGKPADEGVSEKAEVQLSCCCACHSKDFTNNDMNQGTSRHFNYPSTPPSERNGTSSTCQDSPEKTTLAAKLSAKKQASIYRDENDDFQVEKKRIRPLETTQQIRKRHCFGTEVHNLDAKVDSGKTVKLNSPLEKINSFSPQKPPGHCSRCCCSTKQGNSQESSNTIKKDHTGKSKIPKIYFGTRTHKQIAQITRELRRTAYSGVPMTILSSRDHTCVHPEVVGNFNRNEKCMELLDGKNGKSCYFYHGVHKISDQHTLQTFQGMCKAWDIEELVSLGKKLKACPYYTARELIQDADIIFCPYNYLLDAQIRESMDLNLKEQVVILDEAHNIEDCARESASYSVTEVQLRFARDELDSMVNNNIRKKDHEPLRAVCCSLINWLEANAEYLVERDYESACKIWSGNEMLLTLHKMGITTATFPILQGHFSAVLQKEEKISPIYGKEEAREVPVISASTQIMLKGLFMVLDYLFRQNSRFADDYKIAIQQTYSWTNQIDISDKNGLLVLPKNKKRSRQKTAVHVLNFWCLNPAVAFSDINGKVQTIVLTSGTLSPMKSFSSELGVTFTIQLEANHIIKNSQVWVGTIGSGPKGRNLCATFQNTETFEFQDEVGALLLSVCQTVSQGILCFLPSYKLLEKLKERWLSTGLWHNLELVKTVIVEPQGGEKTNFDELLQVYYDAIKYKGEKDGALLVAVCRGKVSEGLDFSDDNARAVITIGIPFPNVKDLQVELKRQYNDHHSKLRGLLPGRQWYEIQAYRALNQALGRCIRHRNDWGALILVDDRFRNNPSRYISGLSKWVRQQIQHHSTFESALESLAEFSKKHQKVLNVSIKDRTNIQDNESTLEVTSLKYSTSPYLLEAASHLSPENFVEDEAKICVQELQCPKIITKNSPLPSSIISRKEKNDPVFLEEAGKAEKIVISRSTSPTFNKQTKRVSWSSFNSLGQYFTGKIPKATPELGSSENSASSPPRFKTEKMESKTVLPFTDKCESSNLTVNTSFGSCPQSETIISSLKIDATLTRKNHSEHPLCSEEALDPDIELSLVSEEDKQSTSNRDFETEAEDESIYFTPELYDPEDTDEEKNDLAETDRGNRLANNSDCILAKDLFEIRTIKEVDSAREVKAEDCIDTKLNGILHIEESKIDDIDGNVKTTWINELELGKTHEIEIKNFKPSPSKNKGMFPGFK

B1: full-length 10xHis-Myc-tagged AND-1 (natural protein, human, UniProt O75717 1-1129, looked up)
chain: MPATRKPMRYGHTEGHTEVCFDDSGSFIVTCGSDGDVRIWEDLDDDDPKFINVGEKAYSCALKSGKLVTAVSNNTIQVHTFPEGVPDGILTRFTTNANHVVFNGDGTKIAAGSSDFLVKIVDVMDSSQQKTFRGHDAPVLSLSFDPKDIFLASASCDGSVRVWQISDQTCAISWPLLQKCNDVINAKSICRLAWQPKSGKLLAIPVEKSVKLYRRESWSHQFDLSDNFISQTLNIVTWSPCGQYLAAGSINGLIIVWNVETKDCMERVKHEKGYAICGLAWHPTCGRISYTDAEGNLGLLENVCDPSGKTSSSKVSSRVEKDYNDLFDGDDMSNAGDFLNDNAVEIPSFSKGIINDDEDDEDLMMASGRPRQRSHILEDDENSVDISMLKTGSSLLKEEEEDGQEGSIHNLPLVTSQRPFYDGPMPTPRQKPFQSGSTPLHLTHRFMVWNSIGIIRCYNDEQDNAIDVEFHDTSIHHATHLSNTLNYTIADLSHEAILLACESTDELASKLHCLHFSSWDSSKEWIIDLPQNEDIEAICLGQGWAAAATSALLLRLFTIGGVQKEVFSLAGPVVSMAGHGEQLFIVYHRGTGFDGDQCLGVQLLELGKKKKQILHGDPLPLTRKSYLAWIGFSAEGTPCYVDSEGIVRMLNRGLGNTWTPICNTREHCKGKSDHYWVVGIHENPQQLRCIPCKGSRFPPTLPRPAVAILSFKLPYCQIATEKGQMEEQFWRSVIFHNHLDYLAKNGYEYEESTKNQATKEQQELLMKMLALSCKLEREFRCVELADLMTQNAVNLAIKYASRSRKLILAQKLSELAVEKAAELTATQVEEEEEEEDFRKKLNAGYSNTATEWSQPRFRNQVEEDAEDSGEADDEEKPEIHKPGQNSFSKSTNSSDVSAKSGAVTFSSQGRVNPFKVSASSKEPAMSMNSARSTNILDNMGKSSKKSTALSRTTNNEKSPIIKPLIPKPKPKQASAASYFQKRNSQTNKTEEVKEENLKNVLSETPAICPPQNTENQRPKTGFQMWLEENRSNILSDNPDFSDEADIIKEGMIRFRVLSTEERKVWANKAKGETASEGTEAKKRKRVVDESDETENQEEKAKENLNLSKKQKPLDFSTNQKLSAFAFKQE
notes: AND-1 (WDHD1), human, full length, amino-acid residues 1-1129; pFBDM construct from Luca Pellegrini (Kilkenny et al, 2017); also called His10-Myc-tagged AND-1; AND-1 full-length; source: High-Five insect cells, baculovirus, purified (Ni-NTA, HiTrap Q)
B2: 6xHis-tagged AND-1 SepB (domain or fragment, human, UniProt O75717 336-826, looked up)
chain: GDFLNDNAVEIPSFSKGIINDDEDDEDLMMASGRPRQRSHILEDDENSVDISMLKTGSSLLKEEEEDGQEGSIHNLPLVTSQRPFYDGPMPTPRQKPFQSGSTPLHLTHRFMVWNSIGIIRCYNDEQDNAIDVEFHDTSIHHATHLSNTLNYTIADLSHEAILLACESTDELASKLHCLHFSSWDSSKEWIIDLPQNEDIEAICLGQGWAAAATSALLLRLFTIGGVQKEVFSLAGPVVSMAGHGEQLFIVYHRGTGFDGDQCLGVQLLELGKKKKQILHGDPLPLTRKSYLAWIGFSAEGTPCYVDSEGIVRMLNRGLGNTWTPICNTREHCKGKSDHYWVVGIHENPQQLRCIPCKGSRFPPTLPRPAVAILSFKLPYCQIATEKGQMEEQFWRSVIFHNHLDYLAKNGYEYEESTKNQATKEQQELLMKMLALSCKLEREFRCVELADLMTQNAVNLAIKYASRSRKLILAQKLSELAVEKAAELTAT
notes: AND-1 (WDHD1), human, SepB domain, amino-acid residues 336-826; pRSF-Duet-1 construct from Luca Pellegrini; purification as in Kilkenny et al, 2017; also called 6xHis-SepB; AND-1 SepB domain; source: E. coli BL21 (DE3), purified
B3: GST-FANCJ CIP box wild type (domain or fragment, human, UniProt Q9BX63 730-747, looked up)
chain: GEKTNFDELLQVYYDAIK
notes: FANCJ (BRIP1), human, CIP box, amino-acid residues 730-747; also called GST-CIP box WT; source: transformed cells cultured in LB medium, IPTG-induced (pGEX-6P-1); captured from the soluble extract on Glutathione Sepharose 4B beads

Holding throughout (conditions): both partners purified
Test [1] concerns the target T1, Flag-tagged FANCJ wild type. Nature of the test: pull-down; His10-Myc-AND-1 (12 μg) on c-Myc magnetic beads, purified FANCJ (4 μg) added; PBS, 5% glycerol, 0.5 mM TCEP, 0.2% Igepal, Benzonase, 2 h at 4 °C; Western blot.
For test [2] the target is unchanged. Nature of the test: pull-down; Flag-tagged protein (2 µg) on anti-Flag M2 agarose beads, purified AND-1 SepB (4 µg) added; 20 mM HEPES-NaOH pH 7.2, 150 mM NaCl, 0.1% Igepal, 1% BSA, 4 °C; Western blot. (In general: In western blotting, separated proteins are transferred to a membrane and probed.)
The test “6xHis-tagged AND-1 SepB” concerns the target B2. Nature of the test: pull-down; GST-FANCJ CIP box on Glutathione Sepharose 4B beads, purified AND-1 SepB (0.5 mg in 500 μL) added; PD Buffer 1 with 1% BSA, 1 h at 4 °C; SDS-PAGE, Coomassie.

Regarding B1, the binding result in test [1] is “binds”.
As for B2, in test [2], the binding result is given as “binds”.
Turning to B3, the binding result in the test with 6xHis-tagged AND-1 SepB was “binds”.

Values taken from article PMC10897178, “FANCJ DNA helicase is recruited to the replisome by AND-1 to ensure genome stability” (EMBO Reports, 2024).
